Experimental data reported in patent publication US20250170227A1 (published 2025).
Where two headings read alike, the source gives them in different places.

How the values were obtained:
[1] = biological target: C1s; assay: C1s activity inhibition
[2] = biological target: C1s; assay: C1s activity inhibition; remark: listed apart in the source

IC50 [1]: 1.8 nM
IC50 [2]: 1.7 nM
B1: rC1inh (other)
chain: NPNATSSSSQDPESLQDRGEGKVATTVISKMLFVEPILEVSSLPTTNSTTNSATKITANTTDEPTTQPTTEPTTQPTIQPTQPTTQLPTDSPTQPTTGSFCPGPVTLCSDLESHSTEAVLGDALVDFSLKLYHAFSAMKKVETNMAFSPFSIASLLTQVLLGAGENTKTNLESILSYPKDFTCVHQALKGFTTKGVTSVSQIFHSPDLAIRDTFVNASRTLYSSSPRVLSNNSDANLELINTWVAKNTNNKISRLLDSLPSDTRLVLLNAIYLSAKWKTTFDPKKTRMEPFHFKNSVIKVPMMNSKKYPVAHFIDQTLKAKVGQLQLSHNLSLVILVPQNLKHRLEDMEQALSPSVFKAIMEKLEMSKFQPTLLTLPRIKVTTSQDMLSIMEKLEFFDFSYDLNLCGLTEDPDLQVSAMQHQTVLELTETGVEAAAASAISVARTLLVFEVQQPFLFVLWDQQHKFPVFMGRVYDPRA
